From the supplement of paper PMC5998384

What was measured:
HeLa Kyoto [1] = assay: solubility in G1/S (NP-40 vs SDS abundance) (log2 ratio); higher = more soluble; conditions: cell cycle stage: G1/S
HeLa Kyoto [2] = assay: melting temperature (median over replicates), in situ; higher = more thermally stable
HeLa Kyoto [3] = assay: solubility change mitosis vs G1/S (difference of NP-40 vs SDS log2 ratios) (log2 ratio difference); higher = more soluble in mitosis
HeLa Kyoto [4] = assay: thermal stability score vs G1/S (z-score of summed log2 fold changes over temperatures); higher = more thermally stable than in G1/S
[5] = cell cycle stage: early G1 (4.5 h after nocodazole release)
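Throughout, for melting temperature (median over replicates), in situ: HeLa Kyoto cells synchronized by double thymidine or nocodazole block, proteins quantified by TMT10plex mass spectrometry, three independent biological replicates.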
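Throughout, for solubility change mitosis vs G1/S (difference of NP-40 vs SDS log2 ratios): synchronized HeLa Kyoto cells (double thymidine block for G1/S, nocodazole release for mitosis), protein amounts in NP-40 versus SDS lysates quantified by mass spectrometry, three biological replicates.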
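Throughout, for solubility in G1/S (NP-40 vs SDS abundance): HeLa Kyoto cells arrested at G1/S by double thymidine block, proteins quantified by TMT10plex mass spectrometry in mild NP-40 versus SDS extracts, three biological replicates.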
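Throughout, for thermal stability score vs G1/S (z-score of summed log2 fold changes over temperatures): synchronized HeLa Kyoto cells, proteins quantified by TMT10plex mass spectrometry, three biological replicates, mitosis taken 0.5 h after nocodazole release, G1/S directly after double thymidine block.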

Sequence	solubility in G1/S (log2) (HeLa Kyoto [1])	melting temperature (HeLa Kyoto [2]; cell cycle stage: G1/S) [°C]	melting temperature (HeLa Kyoto [2]; cell cycle stage: mitosis) [°C]	solubility change mitosis (log2) (HeLa Kyoto [3])	thermal stability score (HeLa Kyoto [4]; [5])	thermal stability score (HeLa Kyoto [4]; cell cycle stage: mitosis)
MMDIYVCLKRPSWMVDNKRMRTASNFQWLLSTFILLYLMNQVNSQKKGAPHDLKCVTNNLQVWNCSWKAPSGTGRGTDYEVCIENRSRSCYQLEKTSIKIPALSHGDYEITINSLHDFGSSTSKFTLNEQNVSLIPDTPEILNLSADFSTSTLYLKWNDRGSVFPHRSNVIWEIKVLRKESMELVKLVTHNTTLNGKDTLHHWSWASDMPLECAIHFVEIRCYIDNLHFSGLEEWSDWSPVKNISWIPDSQTKVFPQDKVILVGSDITFCCVSQEKVLSALIGHTNCPLIHLDGENVAIKIRNISVSASSGTNVVFTTEDNIFGTVIFAGYPPDTPQQLNCETHDLKEIICSWNPGRVTALVGPRATSYTLVESFSGKYVRLKRAEAPTNESYQLLFQMLPNQEIYNFTLNAHNPLGRSQSTILVNITEKVYPHTPTSFKVKDINSTAVKLSWHLPGNFAKINFLCEIEIKKSNSVQEQRNVTIKGVENSSYLVALDKLNPYTLYTFRIRCSTETFWKWSKWSNKKQHLTTEASPSKGPDTWREWSSDGKNLIIYWKPLPINEANGKILSYNVSCSSDEETQSLSEIPDPQHKAEIRLDKNDYIISVVAKNSVGSSPPSKIASMEIPNDDLKIEQVVGMGKGILLTWHYDPNMTCDYVIKWCNSSRSEPCLMDWRKVPSNSTETVIESDEFRPGIRYNFFLYGCRNQGYQLLRSMIGYIEELAPIVAPNFTVEDTSADSILVKWEDIPVEELRGFLRGYLFYFGKGERDTSKMRVLESGRSDIKVKNITDISQKTLRIADLQGKTSYHLVLRAYTDGGVGPEKSMYVVTKENSVGLIIAILIPVAVAVIVGVVTSILCYRKREWIKETFYPDIPNPENCKALQFQKSVCEGSSALKTLEMNPCTPNNVEVLETRSAFPKIEDTEIISPVAERPEDRSDAEPENHVVVSYCPPIIEEEIPNPAADEAGGTAQVIYIDVQSMYQPQAKPEEEQENDPVGGAGYKPQMHLPINSTVEDIAAEEDLDKTAGYRPQANVNTWNLVSPDSPRSIDSNSEIVSFGSPCSINSRQFLIPPKDEDSPKSNGGGWSFTNFFQNKPND [LIFR]	0.206	54.8	55.1	-0.094	-3.21	-1.95
MMEEEELEFVEELEAVLQLTPEVQLAIEQVFPSQDPLDRADFNAVEYINTLFPTEQSLANIDEVVNKIRLKIRRLDDNIRTVVRGQTNVGQDGRQALEEAQKAIQQLFGKIKDIKDKAEKSEQMVKEITRDIKQLDHAKRHLTTSITTLNHLHMLAGGVDSLEAMTRRRQYGEVANLLQGVMNVLEHFHKYMGIPQIRQLSERVKAAQTELGQQILADFEEAFPSQGTKRPGGPSNVLRDACLVANILDPRIKQEIIKKFIKQHLSEYLVLFQENQDVAWLDKIDRRYAWIKRQLVDYEEKYGRMFPREWCMAERIAVEFCHVTRAELAKIMRTRAKEIEVKLLLFAIQRTTNFEGFLAKRFSGCTLTDGTLKKLESPPPSTNPFLEDEPTPEMEELATEKGDLDQPKKPKAPDNPFHGIVSKCFEPHLYVYIESQDKNLGELIDRFVADFKAQGPPKPNTDEGGAVLPSCADLFVYYKKCMVQCSQLSTGEPMIALTTIFQKYLREYAWKILSGNLPKTTTSSGGLTISSLLKEKEGSEVAKFTLEELCLICNILSTAEYCLATTQQLEEKLKEKVDVSLIERINLTGEMDTFSTVISSSIQLLVQDLDAACDPALTAMSKMQWQNVEHVGDQSPYVTSVILHIKQNVPIIRDNLASTRKYFTQFCVKFANSFIPKFITHLFKCKPISMVGAEQLLLDTHSLKMVLLDLPSISSQVVRKAPASYTKIVVKGMTRAEMILKVVMAPHEPLVVFVDNYIKLLTDCNTETFQKILDMKGLKRSEQSSMLELLRQRLPAPPSGAESSGSLSLTAPTPEQESSRIRKLEKLIKKRL [VPS53]	0.196	50	49.7	-0.136	0.237	1.04
MMFYRLLSIVGRQRASPGWQNWSSARNSTSAAEARSMALPTQAQVVICGGGITGTSVAYHLSKMGWKDIVLLEQGRLAAGSTRFCAGILSTARHLTIEQKMADYSNKLYYQLEQETGIQTGYTRTGSIFLAQTQDRLISLKRINAGLNVIGIPSEIISPKKVAELHHLLNVHDLVGAMHVPEDAVVSSADVALALASAASQNGVQIYDRTSVLHVMVKKGQVTGVETDKGQIECQYFVNCAGQWAYELGLSNEEPVSIPLHACEHFYLLTRPLETPLQSSTPTIVDADGRIYIRNWQGGILSGGFEKNPKPIFTEGKNQLEIQNLQEDWDHFEPLLSSLLRRMPELETLEIMKLVNCPETFTPDMRCIMGESPAVQGYFVLAGMNSAGLSFGGGAGKYLAEWMVHGYPSENVWELDLKRFGALQSSRTFLRHRVMEVMPLMYDLKVPRWDFQTGRQLRTSPLYDRLDAQGARWMEKHGFERPKYFVPPDKDLLALEQSKTFYKPDWFDIVESEVKCCKEAVCVIDMSSFTKFEITSTGDQALEVLQYLFSNDLDVPVGHIVHTGMLNEGGGYENDCSIARLNKRSFFMISPTDQQVHCWAWLKKHMPKDSNLLLEDVTWKYTALNLIGPRAVDVLSELSYAPMTPDHFPSLFCKEMSVGYANGIRVMSMTHTGEPGFMLYIPIEYALHVYNEVMSVGQKYGIRNAGYYALRSLRIEKFFAFWGQDINNLTTPLECGRESRVKLEKGMDFIGRDALLQQKQNGVYKRLTMFILDDHDSDLDLWPWWGEPIYRNGQYVGKTTSSAYSYSLERHVCLGFVHNFSEDTGEEQVVTADFINRGEYEIDIAGYRFQAKAKLYPVASLFTQKRRKDDMELSDLHGK [PDPR]	-0.175	53.6	53.7	-0.203	-1.29	-1.55
MMGRSPGFAMQHIVGVPHVLVRRGLLGRDLFMTRTLCSPGPSQPGEKRPEEVALGLHHRLPALGRALGHSIQQRATSTAKTWWDRYEEFVGLNEVREAQGKVTEAEKVFMVARGLVREAREDLEVHQAKLKEVRDRLDRVSREDSQYLELATLEHRMLQEEKRLRTAYLRAEDSEREKFSLFSAAVRESHEKERTRAERTKNWSLIGSVLGALIGVAGSTYVNRVRLQELKALLLEAQKGPVSLQEAIREQASSYSRQQRDLHNLMVDLRGLVHAAGPGQDSGSQAGSPPTRDRDVDVLSAALKEQLSHSRQVHSCLEGLREQLDGLEKTCSQMAGVVQLVKSAAHPGLVEPADGAMPSFLLEQGSMILALSDTEQRLEAQVNRNTIYSTLVTCVTFVATLPVLYMLFKAS [CCDC51]	0.273	53.5	52.7	-0.0792	0.333	0.178
